In patent US20230250176A1 (DRAGONFLY THERAPEUTICS, published 2023):

B1: panitumumab (antibody, IgG2, V domains shown)
VH: QVQLQESGPGLVKPSETLSLTCTVSGGSVSSGDYYWTWIRQSPGKGLEWIGHIYYSGNTNYNPSLKSRLTISIDTSKTQFSLKLSSVTAADTAIYYCVRDRVTGAFDIWGQGTMVTVSS
VL: DIQMTQSPSSLSASVGDRVTITCQASQDISNYLNWYQQKPGKAPKLLIYDASNLETGVPSRFSGSGSGTDFTFTISSLQPEDIATYFCQHFDHLPLAFGGGTKVEIK
B2: TA99 (antibody, V domains shown)
VH: EVQLQQSGAELVRPGALVKLSCKTSGFNIKDYFLHWVRQRPDQGLEWIGWINPDNGNTVYDPKFQGTASLTADTSSNTVYLQLSGLTSEDTAVYFCTRRDYTYEKAALDYWGQGASVIVSS
VL: DIQMSQSPASLSASVGETVTITCRASGNIYNYLAWYQQKQGKSPHLLVYDAKTLADGVPSRFSGSGSGTQYSLKISSLQTEDSGNYYCQHFWSLPFTFGSGTKLEIK

Columns and labels:
[1] = molecular target: T1, human NKG2D on cells (human, UniProt P26718 1-216); assay: flow cytometry, AF647-conjugated test article on KHYG-1 parental cells (NKG2D+, CD16a-)
T1 construct: whole, on cells; also called NKG2D on KHYG-1 parental cells; NKG2D on CD8+ T cells and NK cells
T1 sequence (looked up): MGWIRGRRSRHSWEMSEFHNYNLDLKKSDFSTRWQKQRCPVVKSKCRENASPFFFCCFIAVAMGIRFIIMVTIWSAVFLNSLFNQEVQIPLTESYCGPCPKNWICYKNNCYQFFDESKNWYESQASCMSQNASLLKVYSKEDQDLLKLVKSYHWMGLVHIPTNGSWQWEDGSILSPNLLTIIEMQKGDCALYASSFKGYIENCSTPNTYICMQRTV

[2] = molecular target: purified recombinant mouse EGFR (mouse, UniProt Q01279 25-647, limits assumed); assay: SPR (Biacore 8K), 37 C
Procedure: (§1) Measurements were performed at physiological temperature of 37° C. using a Biacore8K SPR system.

[3] = molecular target: purified recombinant rat EGFR (rat, UniProt A0ABK0LZB0 35-651); assay: SPR (Biacore 8K), 37 C
Procedure: as §1

[4] = molecular target: T2, mouse Tyrp1 on B16F10 and CT26-Tyrp1 cells (mouse, UniProt P07147 25-537); assay: flow cytometry on CT26-Tyrp1 cells, anti-mouse IgG-Fc secondary, MFI minus background, 4-parameter fit
T2 construct: whole, on cells

[5] = molecular target: T2, mouse Tyrp1 on B16F10 and CT26-Tyrp1 …; assay: flow cytometry on B16F10 cells, anti-mouse IgG-Fc secondary, MFI minus background, 4-parameter fit

Row | Binder | binding result [1] | binding result [2] | binding result [3] | EC50 [4] | EC50 [5]
1 | B1 | no binding (tested: 800 nM) | no binding | no binding |  | 
2 | B2 |  |  |  | 14.6 nM | 11 nM
